Values belong to the substance of their own block, whether it stands above or below them.
Key:
[1] = target: chloroplastic glutamine synthetase GS2 of wheat (Triticum aestivum (endogenous in wheat seedlings)); assay: native gel or EMSA; modified blue native electrophoresis (BNE), 4-13% polyacrylamide gradient gel, 4 °C; 1 h with cathode buffer with 0.02% Coomassie G250, then buffer without dye; ~100 ug soluble proteins from wheat seedling chloroplasts, leaves and roots; GS bands detected by in-gel transferase activity; mass calibrated against high-molecular-weight markers
[2] = target: cytosolic glutamine synthetase GS1 holoenzyme of wheat (39 kDa subunit) (Triticum aestivum (endogenous in wheat seedlings)) (UniProt Q45NB7); assay: as above
[3] = target: maize glutamine synthetase (maize (endogenous in maize leaf and roots)); assay: native gel or EMSA; maize leaf and root extracts beside wheat (Supplementary Fig. S5); gel system not given

stoichiometry N [1]: 6
Substance: chloroplastic glutamine synthetase GS2 of wheat (natural protein)

stoichiometry N [2]: 12
Substance: cytosolic glutamine synthetase GS1 holoenzyme of wheat (39 kDa subunit) (from UniProt Q45NB7 1-356) (natural protein)

stoichiometry N [3]: 10
Substance: maize glutamine synthetase (natural protein)
